Test results reported in the DeepSol protein solubility set.

Assay: soluble on expression in E. coli; label from the status in PepcDB or PDB records

Sequence	soluble on expression in E. coli
MPKIAKSDRLENVAFEYIKNKITTGEYPTGYRVVEAKLSQELNMSRTPIRRAIINLCHSGFLVHQYNRGAFVQNTEVTITEFFSRMKLVELLVYESTEKLALREDYIVVDDIIEIAEKVIQYEKNREYELMRGAFEDFISTFIGKLNNDYFNRVIQDLWNEINDNATKEVRLIIVSASDRIAEELAHMIEILKSWNYEQLKKCFQHIMNAMILIAF	not soluble
MKNVGFIGWRGMVGSVLMDRMSQENDFENLNPVFFTTSQAGQKAPVFGGKDAGDLKSAFDIEELKKLDIIVTCQGGDYTNEVYPKLKATGWDGYWVDAASALRMKDDAIIVLDPVNQHVISEGLKKGIKTFVGGNCTVSLMLMAIGGLFEKDLVEWISVATYQAASGAGAKNMRELLSQMGLLEQAVSSELKDPASSILDIERKVTAKMRADNFPTDNFGAALGGSLIPWIDKLLPETGQTKEEWKGYAETNKILGLSDNPIPVDGLCVRIGALRCHSQAFTIKLKKDLPLEEIEQIIASHNEWVKVIPNDKEITLRELTPAKVTGTLSVPVGRLRKLAMGPEYLAAFTVGDQLLWGAAEPVRRILKQLVA	soluble
MDLKKLLPCGKVIVFRKGEIVKHQDDPIEDVLILLEGTLKTEHVSENGKTLEIDEIKPVQIIASGFIFSSEPRFPVNVVAGENSKILSIPKEVFLDLLMKDRELLLFFLKDVSEHFRVVSEKLFFLTTKTLREKLMNFLVRHMNEKRELTLPVTLEELSRLFGCARPALSRVFQELEREGYIEKHGRRIKVLKNPFEHDRI	not soluble
MSLARMSRRSRGAAGAQSVVKPETPMAQVLHQFNYCPCQYLEQNWIVPKQPWLLNLDGWRDNPNFNLWCLEEWALAPVPETAFNKPHHSLALLPPDALSTLMLTIGGALHSFAMRQVVLKKPKQCLNNVFGLDIARFLIQQGPMLLSQWPKGWQKALPDVMKEDEVERHMLKQGYAWMKFILASSSHDILLRWQFKLDQSLSQVKENTSWLVEEQRDLAYRLTKKIAKQVIPQWFHLLKEGHHHHHH	not soluble
MPHSYPALSAEQKKELSDIALRIVAPGKGILAADESVGSMAKRLSQIGVENTEENRRLYRQVLFSADDRVKKCIGGVIFFHETLYQKDDNGVPFVRTIQDKGIVVGIKVDKGVVPLAGTDGETTTQGLDGLSERCAQYKKDGADFAKWRCVLKISERTPSALAILENANVLARYASICQQNGIVPIVEPEILPDGDHDLKRCQYVTEKVLAAVYKALSDHHVYLEGTLLKPNMVTPGHACPIKYTPEEIAMATVTALRRTVPPAVPGVTFLSGGQSEEEASFNLNAINRCPLPRPWALTFSYGRALQASALNAWRGQRDNAGAATEEFIKRAEVNGLAAQGKYEGSGEDGGAAAQSLYIANHAYL	soluble
MGSDKIHHHHHHMSDRLPPLTALRAFDAAARHMSFAKAADELSVTPAALSFQIKSLEEHLGAPLFRRLNRAVELTEAGAALAPGVDEGFQALSAAWRQARRVLDTTSLTVTAGPALTAKWLAPRLYEFARSHPDIDLRLSAGLKMVDLRRDHVDVAIRFGYSVDDYLVAQAARPEWLTPVMTPELCAKYPTPQSLRDAPLIYDDSIGFLSPSCDWPTWFRAMGLEFTPGHGTHFSHADHAIDAACAGLGVALGRRPMIIKDVQEGRLVAPFKVAIETDAKFHFLCLPSSQDRPQIRAFREWFFSEIEKTAHMWDDFTIIPVKDL	not soluble
MAHHHHHHMQSDARELNPGRADFWEHFYDQEDGRLRQKELHHRKAHEIVERGSLMNHYEWFMQYAMYEAALKACLRAVPTVLSKDGATRILHMGCGNSDFCDHVEGLLSDLHPVPSSSSRASEVLNVDICESIVAHLALHFPSRLYAVGNCCDLHVSSSPSMPFSSNAAWYSRDPALRLRKVLQSSVDVVFDKGTADALLSSFAGEYNPNMEAYMGEALKVLRPGGLLFLISINSEDVLSPYALSADDGLKSFHLAYTDVIELGAHDLRHLRVETLGSRYSCYGYAVVASAVAE	soluble
RPVWYGEPVDIQPEHRDMMLVVDLSGSMAEEDMKTSNGDFVDRLTAVKQVVSDFIDQRKGDRLGLVLFGDHAYLQTPLTFDRNTVREQLDRTVLNLVGQRTAIGEGLGLATKTFIESNAPQRTIILLSDGANTAGVLEPLEAAQLAKDNHAKIYTVGIGAGEMQVRGFFGKQTVNTARDLDEDTLTKIATMTGGQYFRARNADELAEIYQTI	not soluble
NQIYLPMVDFRPFKVGKSLRELTQAPAGAPEDVYEYVFVYEKNGKRQEFDMDHLPDDSWTYVDRHEKLIKKGYTPPVTDFLLLRGGEDVTSEIVNKKGITLLLLSPDWENASDDKMDNISEMYDYAQEHAWDFYGVSASTSDDISTWRYNTGADYPMLFLDAVTVKTITRGNPSLVILRDGVIRGKVSDANFPGVGQAQAFFDRYIGNELYQPS	not soluble
MARLNVNPTRMELSRLKKQLTTATRGHKLLKDKQDELMRRFIALVKENNELRIQVEQEVTDALSNFVLANATLNEAFIEELVAIPAEKVELEIIEQNILSVPVPKMIFDYDESVQEAPLDYGYVNSNSELDQAFAKISSILPKLLALANVEKTCQLLSKEIEKTRRRVNALEYMTIPQLEETIYYIQMKLEENERGEITRLIKIKSMNKENLEHHHHHH	not soluble
MWYQKTLTLSAKSRGFHLVTDEILNQLADMPRVNIGLLHLLLQHTSASLTLNENCDPTVRHDMECFFLRTVPDNGNYEHDYEGADDMPSHIKSSMLGTSLVLPVHKGRIQTGTWQGIWLGEHRIHGGSRRIIATLQGELEHHHHHH	not soluble
MKAKAILLASVLLVGCQTSQNTGNVQQHAQSLSAAGQGEAGKFTSQARWMDDGTSIAPDQDLWAFIGDELKMGIPENSRIREQKQKYLRNKSYLHDVTLRAEPYMYWIAGQVKKRNMPMELVLLPIVESAFDPHATSGANAAGIWQIIPSTGRNYGLKQTRNYDARRDVVASTTAALDMMQRLNKMFDGDWLLTVAAYNSGEGRVMRAIKANKARGKPTDFWSLSLPRETKLYVPKMLALSEILKNSKRYGVRLPTTDESRALARVRLNSPVEMAQVADMAGMSISKLKTFNAGVKGSTLGVSGPQYVMVPKKHAEQLRESLASGEIDAVQSQLIADNTPLNSRSYKVRSGDTLSGIASRLGVSTKDLQQWNNLRGSRLKIGQSLTVGAGSSAQRLANNSDSITYRVRKGDSLSSIARRHGVNIKDVMRWNHDTDNLQPGDQLTLFVKDNSTPDSLEHHHHHH	soluble
MAVMSYIDAITLAMREEMERDEKVFVLGEDVGKKGGVFKATHGLYDQFGEDRALDTPLAESAIAGVAIGAAMYGMRPIAEMQFADFIMPAVNQIVSEAAKIRYRSNNDWTCPITVRAPFGGGVHGALYHSQSVEAMFANQPGLKIVIPSTPYDAKGLLKAAIRDEDPVLFFEHKRAYRLIKGEVPEDDYVLPIGKADVKREGDDITVITYGLCVHFALQAAEKLAQDGISAHILDLRTVYPLDKEAIIEAASKTGKVLLVTEDNKEGSIMSEVAAIIAENCLFDLDAPIARLAGPDVPAMPYAPTMEKFFMVNPDKVEKAMRELAEF	not soluble
FSDTLEESSPIAAIFDTENLEKISITEGIERGIVDSITGQRLLEAQACTGGIIHPTTGQKLSLQDAVSQGVIDQDMATRLKPAQKAFIGFEGVKGKKKMSAAEAVKEKWLPYEAGQRFLEFQYLTGGLVDPEVHGRISTEEAIRKGFIDGRAAQRLQDTSSYAKILTCPKTKLKISYKDAINRSMVEDITGLRLLEAASVSSKGLPSPYNMSSA	soluble
MSMENFAQLLEESFTLQEMNPGEVITAEVVAIDQNFVTVNAGLKSESLIDVAEFKNAQGEIEVKVGDFVTVTIESVENGFGETKLSREKAKRAADWIALEEAMENGDILSGIINGKVKGGLTVMISSIRAFLPGSLVDVRPVKDTSHFEGKEIEFKVIKLDKKRNNVVVSRRAVLEATLGEERKALLENLQEGSVIKGIVKNITDYGAFVDLGGIDGLLHITDLAWRRVKHPSEVLEVGQEVEAKVLKFDQEKQRVSLGMKQLGEDPWSGLTRRYPQGTRLFGKVSNLTDYGAFVEIEQGIEGLVHVSEMDWTNKNVHPSKVVQLGDEVEVMILEIDEGRRRISLGMKQCQANPWEEFAANHNKGDKISGAVKSITDFGVFVGLPGGIDGLVHLSDLSWTESGEEAVRKYKKGEEVEAVVLAIDVEKERISLGIKQLEGDPFGNFISVNDKGSLVKGSVKSVDAKGAVIALSDEVEGYLPASEFAADRVEDLTTKLKEGDEVEAVIVTVDRKNRSIKLSVKAKDAKESREALNSVNAAANANAGTTSLGDLLKAKLSGEQELEHHHHHH	soluble
MGSDKIHHHHHHMANEATQELFQVLDNTAIILQNELEISYLEAVYETGENLFQKEVLQKEELSSEKQLKLQESYESIELENFSNEEIRKGLQLALLKGMKHGIQVNHQMTPDSIGFIVAYLLEKVIQKKKNISILDPACGTANLLTTVINQLELKGDVDVHASGVDVDDLLISLALVGADLQRQKMTLLHQDGLANLLVDPVDVVISDLPVGYYPDDENAKTFELCREEGHSFAHFLFIEQGMRYTKPGGYLFFLVPDAMFGTSDFAKVDKFIKKNGHIEGIIKLPETLFKSEQARKSILILRKADVNVKPPKEVLLANLSSLTDPSVTAPILAEIENWFKSKQ	not soluble
MGSDKIHHHHHHMAEQQKTAAATAEAEAIDLGEFSGLLEKDFKVKKDDSEKLQQLVRNLALAAQSRSETTTISSNAIKSIKSLIAGIDKMLTTQVNEILHAPEVREMEGTWRGLWYLINNTETDTKLKIRVMNISKEQLADTLEDYEGQMWDQSPIFKKVYTDEYSMLGGEPIGCIIGAYEFSNHPRDVGLLRNISGVCASAHTPFIAAASPRLFRMDSWQELPNPQDLQMIVNNPAYASWQSLRESEDARYIGLTMPRVLARLPYGSETVPVKGFTFEEEVGGDHNKYVWMNAAFPMGVNINRSHKLYGWGTQIRGVENGGTVLNLPVHAFPTDDGSIAMKCPTEVAIDDRREAELAKLGLMPILHRKNTDLAAFIGAHSLQDDETRAGRLVDPDAQSNERLSANLPYLFPVSRFAHYLKAIARDKIGSFKERTDMEIWLTEWINRYVLANPAFADDKARAKRPLAAAEVQVDSVEGRPGYYNARFYLRPHYQLEGINASLRLVSELPSVKG	not soluble
KSAIVHLINYQDDAELATRALPELTKLLNDEDPVVVTKAAMIVNQLSKKEASRRALMGSPQLVAAVVRTMQNTSDLDTARCTTSILHNLSHHREGLLAIFKSGGIPALVRMLSSPVESVLFYAITTLHNLLLYQEGAKMAVRLADGLQKMVPLLNKNNPKFLAITTDCLQLLAYGNQESKLIILANGGPQALVQIMRNYSYEKLLWTTSRVLKVLSVCPSNKPAIVEAGGMQALGKHLTSNSPRLVQNCLWTLRNLSDVATKQEGLESVLKILVNQLSVDDVNVLTCATGTLSNLTCNNSKNKTLVTQNSGVEALIHAILRAGDKDDITEPAVCALRHLTSRHPEAEMAQNSVRLNYGIPAIVKLLNQPNQWPLVKATIGLIRNLALCPANHAPLQEAAVIPRLVQLLVKAHQDAQRHVAAGTQQPYTDGVRMEEIVEGCTGALHILARDPMNRMEIFRLNTIPLFVQLLYSSVENIQRVAAGVLCELAQDKEAADAIDAEGASAPLMELLHSRNEGTATYAAAVLFRISEDKNPDYRKRVSVELTNSLFKHD	soluble
MATKHDQILKHIEDLPIGDRISVRSIAKSLSVSEGTAYRAIKDAENIGLVSTIQRVGTIRIERKLKKHIEKLTFGEVVRIIEGDVLGGSSGLDKVLNKFVIGAMTETAMTRYITPGSLMIVGNRQGVQKLALENGAAVLITGGFETSEEIAQLADRLGMPVLRTTYDTFTVATMINRALSDQLIKKDILLVSDIYTALEKTNYLLTTQTIADYQALSESTHHSRFPVVNKKLRLVGIVTAKDVIGKSEHLTVDKVMTKDPNVVKKMMSVASVSHQMIWDGLEVMPVVEDDLALVGIVSRQDVMKAMQLVQRQPQIADTISDQISGEVMPVEENGKETTRFRFSVAPQMVNSVGTISFGVLSEIISNVTQRTMLMNQKRNVLIEQVNLHYLRLIQLESELDIRPRILEIGRRSAKLDIEVYLENVIVAKAIVVCQVMERT	not soluble
